Laboratory results reported in publication PMC8999913.

Target: VAP-A (VAMP-associated protein A) (UniProt Q9P0L0)
Assay: anti-GFP co-IP after DSP crosslinking, VAP-A blot
Details: reference: WT, sorbitol-treated; sites S315

## CERT (ceramide transport protein) (from UniProt Q9Y5P4) S315A, sorbitol-treated
  binding against the reference: weaker
